Source: paper PMC6423008
Where “and” joins values, the source holds several entries; their conditions need not be identical. Identical values can stand only once.

Assays:
His57 = His57 (UniProt position 58, HYSGGHTMTNK); experiment: NMR; details: 283 K (10 °C), 50 mM KCl plus 20 mM potassium phosphate, folded, 0.5 mM protein
His98 [1] = molecular target: His98 (UniProt position 99, NFPNYHQTSEI); experiment: NMR; details: 283 K (10 °C), 50 mM KCl plus 20 mM potassium phosphate, folded, 0.5 mM protein
His52 = His52 (UniProt position 53, FTWSQHYSGGH); experiment: NMR; details: 283 K (10 °C), 50 mM KCl plus 20 mM potassium phosphate, folded, 0.5 mM protein
His98 [2] = molecular target: His98 (UniProt position 99, SEKFSHEQEVK); details: apo chicken liver BABP; cited from earlier work
[3] = 0.05% NaN3, holo: doubly ligated I-BABP:GCDA:GCA = 1.0:1.5:1.5 complex

## Ileal bile acid-binding protein (I-BABP, gastrotropin, FABP6) (Homo sapiens)
His57; 0.05% NaN3, apo (ligand-free)
  pKa: 6.4
His57; [3]
  pKa: 7.9
His98 [1]; 0.05% NaN3, apo (ligand-free)
  pKa: 6.6 and 6.7 and 6.8
His98 [1]; [3]
  pKa: 7.0 and 7.2
His52; 0.05% NaN3, apo (ligand-free)
  pKa: 6.7
His52; [3]
  pKa: 6.6 and 6.5 and 6.8

## Liver bile acid-binding protein (cL-BABP, liver basic fatty acid-binding protein) (Gallus gallus)
His98 [2]
  pKa: 4.7
